Test results: publication PMC3257528 (The Journal of Cell Biology, 2011)
Numbering of substitutions follows the chain as printed. Names and notes keep the numbering of the source.

B1: ATL2 (6His-tagged cytoplasmic / soluble domain, ATL2 1–467) (Homo sapiens) (protein)
chain: MAEGDEAARGQQPHQGLWRRRRTSDPSAAVNHVSSTTSLGENYEDDDLVNSDEVMKKPCPVQIVLAHEDDHNFELDEEALEQILLQEHIRDLNIVVVSVAGAFRKGKSFLLDFMLRYMYNKDSQSWIGGNNEPLTGFTWRGGCERETTGIQVWNEVFVIDRPNGTKVAVLLMDTQGAFDSQSTIKDCATVFALSTMTSSVQVYNLSQNIQEDDLQHLQLFTEYGRLAMEEIYQKPFQTLMFLIRDWSYPYEHSYGLEGGKQFLEKRLQVKQNQHEELQNVRKHIHNCFSNLGCFLLPHPGLKVATNPSFDGRLKDIDEDFKRELRNLVPLLLAPENLVEKEISGSKVTCRDLVEYFKAYIKIYQGEELPHPKSMLQATAEANNLAAVAGARDTYCKSMEQVCGGDKPYIAPSDLERKHLDLKEVAIKQFRSVKKMGGDEFCRRYQDQLEAEIEETYANFIKHNDGKN
B2: ATL2 (6His-tagged cytoplasmic / soluble domain, ATL2 1–467) (Homo sapiens; E380R/K372E) (protein)
chain: B1 chain with K372E, E380R

What was measured:
[1] = target: ATL2 (6His-tagged cytoplasmic / soluble domain, ATL2 1–467) (Homo sapiens, UniProt Q8NHH9); assay: SEC dimer shift; format: binding; conditions: 2 mM GMPPNP (SEC, cross-linking) or 1 mM (EM); 30 min RT
[2] = substrate: Nc1nc2c(ncn2[C@@H]2O[C@H](COP(=O)(O)OP(=O)(O)OP(=O)(O)O)[C@@H](O)[C@H]2O)c(=O)[nH]1; assay: malachite green phosphate release, Lineweaver-Burk; format: biochemical, Homo sapiens; conditions: 1 µM enzyme, 5, 10, 20 µM GTP, 37 °C

Row | Molecule | SEC dimer shift (Superdex 200), BMOE cross-linking, negative-stain EM [1] | Km [2]
1 | Nc1nc2c(ncn2[C@@H]2O[C@H](COP(=O)(O)OP(=O)(O)NP(=O)(O)O)[C@@H](O)[C@H]2O)c(=O)[nH]1 [GMPPNP, guanosine 5′-[β,γ-imido]triphosphate] | wild-type ATL2 formed dimers in the presence, but not in the absence, of GMPPNP | –
2 | B1 | – | 34 µM
3 | B2 | – | 44 µM
